# From PMC5260992
# Target: Pin1 (UniProt Q13526)
# Assay: modified ELISA, plate-coated peptide
# Conditions: reference: non-phosphorylated peptide T184; sites T184
substance,measurement,value
ATF1 (activating transcription factor 1) (from UniProt P18846) phosphorylated peptide pT184,binding against the reference,stronger
